Experiments:
[1] = biological target: CK1a (P48729) expressed in-frame upstream to the N-CAT fragment (UniProt P48729)
[2] = biological target: GSPT1 (P15170) expressed in-frame upstream to the N-CAT fragment (UniProt P15170)
[3] = biological target: IKZF1 (Q13422) expressed in-frame upstream to the N-CAT fragment (UniProt Q13422)
Chain of IKZF1 (Q13422) expressed in-frame upstream to the N-CAT fragment (Q13422 other isoform, or with tags, fused parts or gaps): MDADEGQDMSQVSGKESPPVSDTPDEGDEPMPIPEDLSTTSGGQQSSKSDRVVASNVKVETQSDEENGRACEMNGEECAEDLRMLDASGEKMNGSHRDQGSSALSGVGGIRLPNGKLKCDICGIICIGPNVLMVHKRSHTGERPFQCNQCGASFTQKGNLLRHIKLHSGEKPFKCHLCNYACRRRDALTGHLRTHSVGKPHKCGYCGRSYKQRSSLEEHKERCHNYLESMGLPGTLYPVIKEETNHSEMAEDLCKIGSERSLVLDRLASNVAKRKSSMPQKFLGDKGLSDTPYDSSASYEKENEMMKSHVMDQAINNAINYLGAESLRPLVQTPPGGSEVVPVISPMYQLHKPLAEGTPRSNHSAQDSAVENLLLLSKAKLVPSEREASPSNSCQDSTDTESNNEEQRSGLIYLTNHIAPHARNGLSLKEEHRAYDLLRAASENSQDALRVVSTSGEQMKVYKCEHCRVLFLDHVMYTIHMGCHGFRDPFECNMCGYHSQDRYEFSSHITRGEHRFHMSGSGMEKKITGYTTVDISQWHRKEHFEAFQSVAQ

Chain of Cereblon-E2 (Ubc4) fusion (chain, as listed by the source): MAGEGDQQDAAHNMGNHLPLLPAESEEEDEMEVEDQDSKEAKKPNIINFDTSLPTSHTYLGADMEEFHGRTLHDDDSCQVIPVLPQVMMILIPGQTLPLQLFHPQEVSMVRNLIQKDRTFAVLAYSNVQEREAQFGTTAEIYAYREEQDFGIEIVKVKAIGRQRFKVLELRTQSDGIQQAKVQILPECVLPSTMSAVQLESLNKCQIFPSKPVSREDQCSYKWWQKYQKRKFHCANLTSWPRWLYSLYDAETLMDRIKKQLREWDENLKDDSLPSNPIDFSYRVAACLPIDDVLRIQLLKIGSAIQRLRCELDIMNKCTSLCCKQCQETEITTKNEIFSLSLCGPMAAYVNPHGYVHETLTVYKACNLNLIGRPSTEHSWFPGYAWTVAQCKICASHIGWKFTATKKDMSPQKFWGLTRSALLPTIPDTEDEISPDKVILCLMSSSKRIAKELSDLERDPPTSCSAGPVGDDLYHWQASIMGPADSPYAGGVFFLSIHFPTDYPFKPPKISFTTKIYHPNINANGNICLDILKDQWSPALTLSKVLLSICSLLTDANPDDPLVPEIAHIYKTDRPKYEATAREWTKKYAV
Chain of CK1a (P48729) expressed in-frame upstream to the N-CAT fragment (P48729 other isoform, or with tags, fused parts or gaps): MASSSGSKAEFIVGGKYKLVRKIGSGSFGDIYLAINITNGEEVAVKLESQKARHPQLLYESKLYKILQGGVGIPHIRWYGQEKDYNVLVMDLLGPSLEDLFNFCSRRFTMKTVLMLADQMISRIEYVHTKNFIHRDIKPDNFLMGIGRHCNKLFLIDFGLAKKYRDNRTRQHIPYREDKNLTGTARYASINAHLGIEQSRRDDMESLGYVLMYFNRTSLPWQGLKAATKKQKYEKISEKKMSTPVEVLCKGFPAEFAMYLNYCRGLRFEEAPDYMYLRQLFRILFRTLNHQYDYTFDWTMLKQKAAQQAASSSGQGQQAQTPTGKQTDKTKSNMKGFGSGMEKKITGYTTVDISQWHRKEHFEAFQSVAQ
Chain of GSPT1 (P15170) expressed in-frame upstream to the N-CAT fragment (P15170 other isoform, or with tags, fused parts or gaps): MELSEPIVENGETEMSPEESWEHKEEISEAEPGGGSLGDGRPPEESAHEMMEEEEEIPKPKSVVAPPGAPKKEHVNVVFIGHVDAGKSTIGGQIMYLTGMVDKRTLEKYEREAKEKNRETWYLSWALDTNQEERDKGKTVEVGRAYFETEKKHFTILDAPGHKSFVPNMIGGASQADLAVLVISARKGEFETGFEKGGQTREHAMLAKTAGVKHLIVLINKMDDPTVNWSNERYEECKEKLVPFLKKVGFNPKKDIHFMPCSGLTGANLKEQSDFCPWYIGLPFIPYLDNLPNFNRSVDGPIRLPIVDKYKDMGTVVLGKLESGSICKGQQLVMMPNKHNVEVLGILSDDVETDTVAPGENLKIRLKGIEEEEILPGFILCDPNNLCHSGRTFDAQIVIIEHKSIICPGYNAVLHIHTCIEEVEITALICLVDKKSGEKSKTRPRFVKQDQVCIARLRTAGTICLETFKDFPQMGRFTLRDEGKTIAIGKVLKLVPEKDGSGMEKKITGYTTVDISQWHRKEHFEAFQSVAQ

## Cereblon-E2 (Ubc4) fusion
[1]
  growth of E. coli (OD600) under chloramphenicol, split-CAT ubiquitylation selection, with Lenalidomide (LLD): Thalidomide and Lenalidomide (TLD/LLD) significantly promoted the growth of E. coli that express CK1a
  growth of E. coli (OD600) under chloramphenicol, split-CAT ubiquitylation selection, with Thalidomide (TLD): Thalidomide and Lenalidomide (TLD/LLD) significantly promoted the growth of E. coli that express CK1a
[2]
  growth of E. coli (OD600) under chloramphenicol, split-CAT ubiquitylation selection, with CC-885: CC-885 significantly promoted the growth of E. coli that express GSPT1
[3]
  dose response of E. coli growth (OD600) to TLD and LLD, split-CAT selection: the selection system maintains this well-known optimum characteristic response to TLD and LLD
  growth of E. coli (OD600) under chloramphenicol, split-CAT ubiquitylation selection, with Lenalidomide (LLD): Thalidomide and Lenalidomide (TLD/LLD) significantly promoted the growth of E. coli that express IKZF1
  growth of E. coli (OD600) under chloramphenicol, split-CAT ubiquitylation selection, with Thalidomide (TLD): Thalidomide and Lenalidomide (TLD/LLD) significantly promoted the growth of E. coli that express IKZF1

— US20210356467
